Results on one molecule are retold here after paper doi:10.1101/2022.06.13.496009.

This data set addresses T1, SALL4 ZFC4 (human, UniProt Q9UJQ4 856-930).
T1 sequence: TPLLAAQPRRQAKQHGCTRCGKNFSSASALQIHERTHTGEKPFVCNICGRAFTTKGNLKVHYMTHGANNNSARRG
Description: ITC. In general terms: Isothermal titration calorimetry measures the heat released or taken up as one component is titrated into another.

For orientation: Kd means the free concentration of one partner at which half of the binding sites on the other are occupied at equilibrium, for simple one-to-one binding.

B1: 12-mer T3C/A3'G (dsDNA)
DNA 1: GGCAATATTTCC
DNA 2: GGAAATATTGCC
The molecule B1 came in with a Kd of about 9.95 µM.
